Experimental data reported in the supplement of paper PMC10065799, “High-throughput profiling of sequence recognition by tyrosine kinases and SH2 domains using bacterial peptide display” (eLife, 2023).

test system: AncSZ; test: phosphorylation enrichment, bacterial display (enrichment ratio); higher = better substrate or ligand; peptides without Tyr show the background
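Further: 11-residue human phosphosite peptides and single-mutation variants displayed on the E. coli surface, counted by deep sequencing, each peptide's frequency after selection divided by its frequency in the unselected input library; frequency after pTyr selection over input frequency; kinase dosed for 20-30% of maximal phosphorylation in three min.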

Sequence	phosphorylation enrichment
SPFAVYRFFTF [RPGRIP1_Y826_YF]	1.22
CTTIHYYYMCN [TP53_Y234_N235Y]	0.991
TFTVSYLPDMS [FLNC_Y1602_YF]	1.08
SYSGEYGGGGG [ZG16_Y30]	0.604
GVIRHSVVCST [BTK_Y334_Y334S]	0.783
MENFIYESMRF [CYP19A1_Y361_YF]	1.3
PNRILYGDFQQ [MYH7_Y715_R719Q]	0.601
VFLGAYDCFLP [SLC22A5_Y486_R488C_YF]	1.6
SIKDKYVTALF [KCNH2_Y611_YF]	0.684
IRKKFYRAILE [CHD7_Y1218_Q1214R_YF]	0.569
ANQDDYISFRH [IMP4_Y226]	1.17
MGSYNYLGFAR [SPTLC2_Y178]	0.831
FFWDGYMPRQF [GSS_Y270_R267W_YF]	1.12
LTDRGYSFVTT [ACTA1_Y200_E197D]	1.38
EAEPYYRSLRD [NPHS1_Y1139]	0.929
VLSIDYFFPPQ [AR_Y552_P549S_YF]	5.83
VDLSKCITTIA [FAS_Y232_Y232C]	0.975

Sequence	phosphorylation enrichment
TWSSSYRSDRL [CRYBB1_Y131]	0.682
RPSRWYQFPVA [ANOS1_Y259_R262P]	2.95
KLIETYFSKNY [PLP1_Y50]	0.701
AGKEEYSAMRD [HRAS_Y64_Q61K]	0.799
SVVVPYERPEV [TP53_Y220_P222R]	0.958
SEEVNYATLTF [CLEC12B_Y7_T6N]	1.1
ATDLAYYLVRK [ASL_Y375]	1.63
TLKDVYDDGKF [RPS6KA3_Y483_YF]	0.988
SKLTIYDARPS [MTM1_Y277]	0.779
FARNSYVAGQF [G6PD_Y107_YF]	0.662
GDEEDYFEIPG [EGFR_opt_F_2015]	2.75
PSGPMYRGAVP [ASAH1_Y43_T42M]	0.617
VQSASYLNDCL [MCM3AP_Y864_A867D]	0.788
YQLPYYNTVPS [BMPR1A_Y458_M460T]	2
PTTKTYFPQFD [HBA1_Y43_H46Q]	0.83
VGTKWYMAPEV [ACVRL1_Y375_R374W]	0.899

molecular target: EPHB1 (UniProt P54762); test: as above
Sequence (P54762 whole entry, looked up): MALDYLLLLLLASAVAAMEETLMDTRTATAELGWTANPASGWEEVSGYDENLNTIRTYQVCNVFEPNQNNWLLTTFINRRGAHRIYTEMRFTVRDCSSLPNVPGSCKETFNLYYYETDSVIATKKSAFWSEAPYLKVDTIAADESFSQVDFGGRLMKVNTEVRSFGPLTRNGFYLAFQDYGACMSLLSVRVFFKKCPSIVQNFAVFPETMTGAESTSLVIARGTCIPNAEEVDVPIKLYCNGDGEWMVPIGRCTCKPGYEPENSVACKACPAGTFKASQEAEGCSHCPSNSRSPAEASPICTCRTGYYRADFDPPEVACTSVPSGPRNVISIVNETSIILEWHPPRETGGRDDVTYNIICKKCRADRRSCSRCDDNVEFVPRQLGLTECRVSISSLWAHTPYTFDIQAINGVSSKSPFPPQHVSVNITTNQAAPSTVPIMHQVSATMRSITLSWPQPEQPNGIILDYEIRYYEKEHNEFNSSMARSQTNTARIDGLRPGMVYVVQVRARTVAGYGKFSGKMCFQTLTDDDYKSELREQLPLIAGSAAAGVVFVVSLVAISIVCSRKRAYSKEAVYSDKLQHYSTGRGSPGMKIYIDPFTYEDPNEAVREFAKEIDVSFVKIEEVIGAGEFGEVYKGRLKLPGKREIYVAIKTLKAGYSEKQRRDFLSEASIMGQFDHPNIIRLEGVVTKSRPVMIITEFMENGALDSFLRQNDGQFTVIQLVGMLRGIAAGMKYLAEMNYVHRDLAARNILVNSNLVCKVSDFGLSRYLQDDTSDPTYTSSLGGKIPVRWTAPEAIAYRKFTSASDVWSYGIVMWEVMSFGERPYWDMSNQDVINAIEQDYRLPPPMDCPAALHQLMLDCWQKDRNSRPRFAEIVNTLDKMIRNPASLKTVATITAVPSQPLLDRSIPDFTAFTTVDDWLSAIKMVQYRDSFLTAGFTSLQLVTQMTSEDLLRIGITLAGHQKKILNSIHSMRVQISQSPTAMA

Sequence	phosphorylation enrichment
SPFAVYRFFTF [RPGRIP1_Y826_YF]	0.501
CTTIHYYYMCN [TP53_Y234_N235Y]	0.585
TFTVSYLPDMS [FLNC_Y1602_YF]	0.631
SYSGEYGGGGG [ZG16_Y30]	0.398
GVIRHSVVCST [BTK_Y334_Y334S]	0.508
MENFIYESMRF [CYP19A1_Y361_YF]	4.14
PNRILYGDFQQ [MYH7_Y715_R719Q]	0.504
VFLGAYDCFLP [SLC22A5_Y486_R488C_YF]	2.6
SIKDKYVTALF [KCNH2_Y611_YF]	0.449
IRKKFYRAILE [CHD7_Y1218_Q1214R_YF]	0.386
ANQDDYISFRH [IMP4_Y226]	0.507
MGSYNYLGFAR [SPTLC2_Y178]	2.42
FFWDGYMPRQF [GSS_Y270_R267W_YF]	0.601
LTDRGYSFVTT [ACTA1_Y200_E197D]	0.852
EAEPYYRSLRD [NPHS1_Y1139]	0.487
VLSIDYFFPPQ [AR_Y552_P549S_YF]	1.08
VDLSKCITTIA [FAS_Y232_Y232C]	0.626

Sequence	phosphorylation enrichment
TWSSSYRSDRL [CRYBB1_Y131]	0.441
RPSRWYQFPVA [ANOS1_Y259_R262P]	0.403
KLIETYFSKNY [PLP1_Y50]	0.371
AGKEEYSAMRD [HRAS_Y64_Q61K]	0.467
SVVVPYERPEV [TP53_Y220_P222R]	0.439
SEEVNYATLTF [CLEC12B_Y7_T6N]	1.98
ATDLAYYLVRK [ASL_Y375]	0.602
TLKDVYDDGKF [RPS6KA3_Y483_YF]	0.542
SKLTIYDARPS [MTM1_Y277]	0.629
FARNSYVAGQF [G6PD_Y107_YF]	0.321
GDEEDYFEIPG [EGFR_opt_F_2015]	0.571
PSGPMYRGAVP [ASAH1_Y43_T42M]	0.34
VQSASYLNDCL [MCM3AP_Y864_A867D]	0.536
YQLPYYNTVPS [BMPR1A_Y458_M460T]	0.642
PTTKTYFPQFD [HBA1_Y43_H46Q]	0.672
VGTKWYMAPEV [ACVRL1_Y375_R374W]	1.78

molecular target: EPHB2 (UniProt P29323); test: as above
Sequence (P29323 whole entry, looked up): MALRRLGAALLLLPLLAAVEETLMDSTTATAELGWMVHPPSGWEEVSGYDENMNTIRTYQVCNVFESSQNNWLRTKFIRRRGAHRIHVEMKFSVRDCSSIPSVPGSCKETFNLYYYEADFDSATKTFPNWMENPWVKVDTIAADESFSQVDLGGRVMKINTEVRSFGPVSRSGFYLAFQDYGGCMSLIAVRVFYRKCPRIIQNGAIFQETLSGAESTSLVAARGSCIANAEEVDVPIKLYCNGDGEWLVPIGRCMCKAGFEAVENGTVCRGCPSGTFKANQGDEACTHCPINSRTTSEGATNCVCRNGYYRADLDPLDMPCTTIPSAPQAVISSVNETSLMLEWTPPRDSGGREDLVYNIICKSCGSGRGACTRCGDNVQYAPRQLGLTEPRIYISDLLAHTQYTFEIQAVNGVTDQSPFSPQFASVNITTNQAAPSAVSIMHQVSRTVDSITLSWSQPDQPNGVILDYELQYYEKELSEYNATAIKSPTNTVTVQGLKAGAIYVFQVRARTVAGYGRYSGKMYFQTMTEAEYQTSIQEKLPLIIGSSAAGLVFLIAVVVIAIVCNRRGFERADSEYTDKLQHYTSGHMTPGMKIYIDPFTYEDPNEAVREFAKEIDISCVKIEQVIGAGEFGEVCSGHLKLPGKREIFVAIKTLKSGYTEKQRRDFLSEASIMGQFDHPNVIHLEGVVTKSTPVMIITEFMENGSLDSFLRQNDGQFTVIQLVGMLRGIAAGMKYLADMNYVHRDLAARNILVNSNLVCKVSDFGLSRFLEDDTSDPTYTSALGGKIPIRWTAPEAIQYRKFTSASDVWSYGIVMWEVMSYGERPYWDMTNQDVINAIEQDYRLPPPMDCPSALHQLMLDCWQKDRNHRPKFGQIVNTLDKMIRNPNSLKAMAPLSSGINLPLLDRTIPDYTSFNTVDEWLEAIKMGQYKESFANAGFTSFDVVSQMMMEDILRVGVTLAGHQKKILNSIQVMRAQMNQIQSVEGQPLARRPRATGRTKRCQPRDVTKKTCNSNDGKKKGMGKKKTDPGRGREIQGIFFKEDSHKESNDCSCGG

Sequence	phosphorylation enrichment
SPFAVYRFFTF [RPGRIP1_Y826_YF]	0.519
CTTIHYYYMCN [TP53_Y234_N235Y]	0.773
TFTVSYLPDMS [FLNC_Y1602_YF]	0.599
SYSGEYGGGGG [ZG16_Y30]	0.452
GVIRHSVVCST [BTK_Y334_Y334S]	0.456
MENFIYESMRF [CYP19A1_Y361_YF]	2.63
PNRILYGDFQQ [MYH7_Y715_R719Q]	0.516
VFLGAYDCFLP [SLC22A5_Y486_R488C_YF]	4.47
SIKDKYVTALF [KCNH2_Y611_YF]	0.5
IRKKFYRAILE [CHD7_Y1218_Q1214R_YF]	0.58
ANQDDYISFRH [IMP4_Y226]	0.469
MGSYNYLGFAR [SPTLC2_Y178]	0.949
FFWDGYMPRQF [GSS_Y270_R267W_YF]	0.551
LTDRGYSFVTT [ACTA1_Y200_E197D]	1.04
EAEPYYRSLRD [NPHS1_Y1139]	0.594
VLSIDYFFPPQ [AR_Y552_P549S_YF]	0.843
VDLSKCITTIA [FAS_Y232_Y232C]	0.533

Sequence	phosphorylation enrichment
TWSSSYRSDRL [CRYBB1_Y131]	0.608
RPSRWYQFPVA [ANOS1_Y259_R262P]	0.433
KLIETYFSKNY [PLP1_Y50]	0.329
AGKEEYSAMRD [HRAS_Y64_Q61K]	0.505
SVVVPYERPEV [TP53_Y220_P222R]	0.513
SEEVNYATLTF [CLEC12B_Y7_T6N]	1.46
ATDLAYYLVRK [ASL_Y375]	0.543
TLKDVYDDGKF [RPS6KA3_Y483_YF]	0.513
SKLTIYDARPS [MTM1_Y277]	0.737
FARNSYVAGQF [G6PD_Y107_YF]	0.398
GDEEDYFEIPG [EGFR_opt_F_2015]	0.723
PSGPMYRGAVP [ASAH1_Y43_T42M]	0.539
VQSASYLNDCL [MCM3AP_Y864_A867D]	0.602
YQLPYYNTVPS [BMPR1A_Y458_M460T]	0.799
PTTKTYFPQFD [HBA1_Y43_H46Q]	0.58
VGTKWYMAPEV [ACVRL1_Y375_R374W]	1.93

molecular target: FGFR1 (UniProt P11362); test: as above
Sequence (P11362 whole entry, looked up): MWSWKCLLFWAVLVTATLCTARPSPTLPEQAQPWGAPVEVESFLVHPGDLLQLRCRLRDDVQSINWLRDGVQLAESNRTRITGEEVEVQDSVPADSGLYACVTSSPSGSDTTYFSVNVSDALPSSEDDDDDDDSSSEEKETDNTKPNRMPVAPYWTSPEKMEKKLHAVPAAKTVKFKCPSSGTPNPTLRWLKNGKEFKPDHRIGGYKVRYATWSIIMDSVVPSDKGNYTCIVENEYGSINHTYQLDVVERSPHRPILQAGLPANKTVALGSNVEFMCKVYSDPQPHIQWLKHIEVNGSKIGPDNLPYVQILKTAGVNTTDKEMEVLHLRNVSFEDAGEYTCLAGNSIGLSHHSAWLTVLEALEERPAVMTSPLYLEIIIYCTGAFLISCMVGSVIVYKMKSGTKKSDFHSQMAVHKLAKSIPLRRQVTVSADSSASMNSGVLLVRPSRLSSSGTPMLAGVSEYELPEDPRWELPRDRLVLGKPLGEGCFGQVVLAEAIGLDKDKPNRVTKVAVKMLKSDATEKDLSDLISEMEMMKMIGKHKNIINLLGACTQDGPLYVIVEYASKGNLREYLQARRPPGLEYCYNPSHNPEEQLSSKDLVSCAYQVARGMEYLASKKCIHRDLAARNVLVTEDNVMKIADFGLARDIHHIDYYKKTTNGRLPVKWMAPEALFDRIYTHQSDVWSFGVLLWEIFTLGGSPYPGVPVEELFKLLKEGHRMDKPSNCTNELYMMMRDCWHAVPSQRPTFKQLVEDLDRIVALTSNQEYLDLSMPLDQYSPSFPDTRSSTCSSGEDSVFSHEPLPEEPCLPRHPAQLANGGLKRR

Sequence	phosphorylation enrichment
SPFAVYRFFTF [RPGRIP1_Y826_YF]	0.637
CTTIHYYYMCN [TP53_Y234_N235Y]	2.74
TFTVSYLPDMS [FLNC_Y1602_YF]	0.607
SYSGEYGGGGG [ZG16_Y30]	0.53
GVIRHSVVCST [BTK_Y334_Y334S]	0.453
MENFIYESMRF [CYP19A1_Y361_YF]	0.551
PNRILYGDFQQ [MYH7_Y715_R719Q]	0.422
VFLGAYDCFLP [SLC22A5_Y486_R488C_YF]	0.631
SIKDKYVTALF [KCNH2_Y611_YF]	0.525
IRKKFYRAILE [CHD7_Y1218_Q1214R_YF]	0.426
ANQDDYISFRH [IMP4_Y226]	1.07
MGSYNYLGFAR [SPTLC2_Y178]	1.3
FFWDGYMPRQF [GSS_Y270_R267W_YF]	0.481
LTDRGYSFVTT [ACTA1_Y200_E197D]	0.772
EAEPYYRSLRD [NPHS1_Y1139]	0.505
VLSIDYFFPPQ [AR_Y552_P549S_YF]	12.7
VDLSKCITTIA [FAS_Y232_Y232C]	0.461

Sequence	phosphorylation enrichment
TWSSSYRSDRL [CRYBB1_Y131]	0.398
RPSRWYQFPVA [ANOS1_Y259_R262P]	2.41
KLIETYFSKNY [PLP1_Y50]	0.334
AGKEEYSAMRD [HRAS_Y64_Q61K]	0.529
SVVVPYERPEV [TP53_Y220_P222R]	0.495
SEEVNYATLTF [CLEC12B_Y7_T6N]	1.25
ATDLAYYLVRK [ASL_Y375]	4.91
TLKDVYDDGKF [RPS6KA3_Y483_YF]	0.614
SKLTIYDARPS [MTM1_Y277]	0.606
FARNSYVAGQF [G6PD_Y107_YF]	0.503
GDEEDYFEIPG [EGFR_opt_F_2015]	4.57
PSGPMYRGAVP [ASAH1_Y43_T42M]	0.392
VQSASYLNDCL [MCM3AP_Y864_A867D]	0.757
YQLPYYNTVPS [BMPR1A_Y458_M460T]	5.46
PTTKTYFPQFD [HBA1_Y43_H46Q]	0.576
VGTKWYMAPEV [ACVRL1_Y375_R374W]	0.827
